This note sets out measurements from paper PMC8666670, “Malonyl-acyl carrier protein decarboxylase activity promotes fatty acid and cell envelope biosynthesis in Proteobacteria” (The Journal of Biological Chemistry, 2021).

Broadly, the stoichiometry N is a count of units in the complex or per binding partner.

B1: MadA(M17A), malonyl-ACP decarboxylase (yiiD gene product) of E. coli (enzyme, UniProt P0ADQ2 1-329, looked up)
chain: MSQLPGLSRETRESIAAYHLRVPQTEEELERYYQFRWEMLRKPLHQPKGSERDAWDAMAHHQMVVDEQGNLVAVGRLYINADNEASIRFMAVHPDVQDKGLGTLMAMTLESVARQEGVKRVTCSAREDAVEFFAKLGFVNQGEITTPTTTPIRHFLMIKPVATLDDILHRGDWCAQLQQAWYEHIPLSEKMGVRIQQYTGQKFITTMPETGNQNPHHTLFAGSLFSLATLTGWGLIWLMLRERHLGGTIILADAHIRYSKPISGKPHAVADLGALSGDLDRLARGRKARVQMQVEIFGDETPGAVFEGTYIVLPAKPFGPYEEGGNEEE
notes: YiiD (MadA) of E. coli, amplified from Top10 genomic DNA, plasmid pPJ604 with M17A to remove a second start site; Cleavage of the His6 tag is reported only for ACP and MadA^C; MadA^C is said to end at residue 329, so the whole protein probably spans 1-329; also called MadA(M17A) mutant

Series [1] concerns the molecule itself. The series is described as follows: AUC; sedimentation analysis (methods: sedimentation velocity, 50,000 rpm, interference optics), 0.02 M Tris pH 7.5, 0.5 M NaCl, 20 °C, no reducing agents.
Series [2] deals with GlmU, glucosamine-1-phosphate N-acetyl transferase/N-acetyl-glucosamine-1-phosphate uridylyltransferase of E. … (E. coli, UniProt P0ACC7 1-456). Kind of series: cell-based or functional assay.
Series [3] addresses B1. Kind of series: AUC; sedimentation analysis (methods: sedimentation velocity, 50,000 rpm, interference optics), 0.02 M Tris pH 7.5, 0.5 M NaCl, 20 °C, no reducing agents. To be noted: both partners purified.
Series [4] deals with the molecule itself. The series is described as follows: SEC; gel filtration chromatography of the purified recombinant protein. On the technique in general: Size exclusion chromatography separates by hydrodynamic size, large species first.

GlmU, glucosamine-1-phosphate N-acetyl transferase/N-acetyl-glucosamine-1-phosphate uridylyltransferase of E. …, sequence (P0ACC7 whole entry): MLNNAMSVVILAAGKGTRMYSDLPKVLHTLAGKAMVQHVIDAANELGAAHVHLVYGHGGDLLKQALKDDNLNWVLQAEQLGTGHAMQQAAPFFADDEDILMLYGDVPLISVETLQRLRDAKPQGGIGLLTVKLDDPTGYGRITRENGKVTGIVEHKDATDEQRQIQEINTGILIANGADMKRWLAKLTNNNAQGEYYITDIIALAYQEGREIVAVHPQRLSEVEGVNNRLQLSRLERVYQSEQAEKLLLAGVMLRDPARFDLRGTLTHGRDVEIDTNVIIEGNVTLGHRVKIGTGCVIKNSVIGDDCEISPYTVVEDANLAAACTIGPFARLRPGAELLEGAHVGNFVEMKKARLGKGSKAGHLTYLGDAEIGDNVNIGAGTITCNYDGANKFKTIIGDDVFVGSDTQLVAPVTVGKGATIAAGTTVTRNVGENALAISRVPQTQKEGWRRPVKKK

Turning to B1, the “stoichiometry N” value in series [1] was 2.

B2: acetyl-acyl carrier protein (acetyl-ACP) (natural protein, UniProt P0A6A8 1-78, looked up)
chain: MSTIEERVKKIIGEQLGVKQEEVTNNASFVEDLGADSLDTVELVMALEEEFDTEIPDEEAEKITTVQAAIDYINGHQA
modifications: prosthetic group with attached acetyl chain (acetyl thioester), made from apo-ACP and acetyl-CoA with [ACP]synthase
Consider B2, for which the “apparent KM of the GlmU acetyltransferase half reaction for [^14C]acetyl-ACP (radiochemical TLC assay, 0–32 μM acetyl-ACP)” value in series [2] is 20 µM.

B3: acyl carrier protein (ACP) (natural protein, UniProt P0A6A8 1-78, looked up)
chain: MSTIEERVKKIIGEQLGVKQEEVTNNASFVEDLGADSLDTVELVMALEEEFDTEIPDEEAEKITTVQAAIDYINGHQA
notes: acyl carrier protein; The ACP disulfide dimers seen in the sedimentation analysis imply that at least part of the preparation carries the phosphopantetheine thiol (holo-ACP)
As for B3, the “stoichiometry N” value in series [3] was determined as 2 ACP per MadA dimer.

B4: MadA^C, carboxy-terminal hot dog domain of E. coli MadA (domain or fragment, UniProt P0ADQ2 171-329, looked up)
chain: GDWCAQLQQAWYEHIPLSEKMGVRIQQYTGQKFITTMPETGNQNPHHTLFAGSLFSLATLTGWGLIWLMLRERHLGGTIILADAHIRYSKPISGKPHAVADLGALSGDLDRLARGRKARVQMQVEIFGDETPGAVFEGTYIVLPAKPFGPYEEGGNEEE
notes: MadA (YiiD) of E. coli, amino acids 171 to 329, amplified from Top10 genomic DNA
For the molecule B4, in series [4], the “stoichiometry N” value came out at 2.
